Reference: patent US20160348147A1, “SYSTEMS AND DEVICES FOR PROTEASE DETECTION BASED ON ENGINEERED POLYMERS AND BIOPOLYMERS AND METHODS OF USE” (DUKE UNIVERSITY, priority 2014, published 2016)

Target: ELP-substrate fusion M(GVGVP)60…
Assay: cell-based or functional assay

Chain of ELP-substrate fusion M(GVGVP)60… (chain, as listed by the source): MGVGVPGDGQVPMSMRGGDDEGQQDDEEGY

Substance: Human MMP-1 catalytic domain (recombinant, produced in E. coli, 19.9 kDa) (from UniProt P03956 100-269) (enzyme)
- aggregation time (optical density versus time), 50 ng/mL MMP-1, without inhibitor: < 50 min
